Target: the molecule itself
Assay: mass photometry; protein in solution at 75 nM final; 20 mM HEPES-NaOH pH 7.5, 130 mM NaCl, 10 mM KCl, 2 mM MgCl2, 2 mM DTT, 2% glycerol; Refeyn mass photometer; mass measured three times for each protein

Protein | stoichiometry N
short form of human OPA1 (residues 195–960) wild-type (domain or fragment, UniProt O60313-1 195-960, looked up, acetyl-lysine at K342 only (endogenous, acquired during expression; found by mass spectrometry), Optic Atrophy 1 (OPA1), human, short form (s-OPA1), residues 195-960; domain model of isoform 1; Gene bought from Genscript in the pGS-21a vector; also called s-OPA1 WT; s-OPA1; source: E. coli BL21 (DE3), purified (glutathione resin, 3C protease cleavage, size exclusion chromatography)) ATDRGSESDKHFRKVSDKEKIDQLQEELLHTQLKYQRILERLEKENKELRKLVLQKDDKGIHHRKLKKSLIDMYSEVLDVLSDYDASYNTQDHLPRVVVVGDQSAGKTSVLEMIAQARIFPRGSGEMMTRSPVKVTLSEGPHHVALFKDSSREFDLTKEEDLAALRHEIELRMRKNVKEGCTVSPETISLNVKGPGLQRMVLVDLPGVINTVTSGMAPDTKETIFSISKAYMQNPNAIILCIQDGSVDAERSIVTDLVSQMDPHGRRTIFVLTKVDLAEKNVASPSRIQQIIEGKLFPMKALGYFAVVTGKGNSSESIEAIREYEEEFFQNSKLLKTSMLKAHQVTTRNLSLAVSDCFWKMVRESVEQQADSFKATRFNLETEWKNNYPRLRELDRNELFEKAKNEILDEVISLSQVTPKHWEEILQQSLWERVSTHVIENIYLPAAQTMNSGTFNTTVDIKLKQWTDKQLPNKAVEVAWETLQEEFSRFMTEPKGKEHDDIFDKLKEAVKEESIKRHKWNDFAEDSLRVIQHNALEDRSISDKQQWDAAIYFMEEALQARLKDTENAIENMVGPDWKKRWLYWKNRTQEQCVHNETKNELEKMLKCNEEHPAYLASDEITTVRKNLESRGVEVDPSLIKDTWHQVYRRHFLKTALNHCNLCRRGFYYYQRHFVDSELECNDVVLFWRIQRMLAITANTLRQQLTNTEVRRLEKNVKEVLEDFAEDGEKKIKLLTGKRVQLAEDLKKVREIQEKLDAFIEALHQEK | 2
s-OPA1 K342R (domain or fragment, human, UniProt O60313-1 195-960, looked up, 18 acetylated lysine sites (endogenous; listed in Figure 2c), Optic Atrophy 1 (OPA1), human, short form (s-OPA1), residues 195-960; domain model of isoform 1; Gene bought from Genscript in the pGS-21a vector; source: E. coli BL21 (DE3), purified (glutathione resin, 3C protease cleavage, size exclusion chromatography)) ATDRGSESDKHFRKVSDKEKIDQLQEELLHTQLKYQRILERLEKENKELRKLVLQKDDKGIHHRKLKKSLIDMYSEVLDVLSDYDASYNTQDHLPRVVVVGDQSAGKTSVLEMIAQARIFPRGSGEMMTRSPVKVTLSEGPHHVALFRDSSREFDLTKEEDLAALRHEIELRMRKNVKEGCTVSPETISLNVKGPGLQRMVLVDLPGVINTVTSGMAPDTKETIFSISKAYMQNPNAIILCIQDGSVDAERSIVTDLVSQMDPHGRRTIFVLTKVDLAEKNVASPSRIQQIIEGKLFPMKALGYFAVVTGKGNSSESIEAIREYEEEFFQNSKLLKTSMLKAHQVTTRNLSLAVSDCFWKMVRESVEQQADSFKATRFNLETEWKNNYPRLRELDRNELFEKAKNEILDEVISLSQVTPKHWEEILQQSLWERVSTHVIENIYLPAAQTMNSGTFNTTVDIKLKQWTDKQLPNKAVEVAWETLQEEFSRFMTEPKGKEHDDIFDKLKEAVKEESIKRHKWNDFAEDSLRVIQHNALEDRSISDKQQWDAAIYFMEEALQARLKDTENAIENMVGPDWKKRWLYWKNRTQEQCVHNETKNELEKMLKCNEEHPAYLASDEITTVRKNLESRGVEVDPSLIKDTWHQVYRRHFLKTALNHCNLCRRGFYYYQRHFVDSELECNDVVLFWRIQRMLAITANTLRQQLTNTEVRRLEKNVKEVLEDFAEDGEKKIKLLTGKRVQLAEDLKKVREIQEKLDAFIEALHQEK | 2
s-OPA1 K342Q (domain or fragment, human, UniProt O60313-1 195-960, looked up, 11 additional acetylation sites (endogenous; listed in Figure 2c), Optic Atrophy 1 (OPA1), human, short form (s-OPA1), residues 195-960; domain model of isoform 1; Gene bought from Genscript in the pGS-21a vector; source: E. coli BL21 (DE3), purified (glutathione resin, 3C protease cleavage, size exclusion chromatography)) ATDRGSESDKHFRKVSDKEKIDQLQEELLHTQLKYQRILERLEKENKELRKLVLQKDDKGIHHRKLKKSLIDMYSEVLDVLSDYDASYNTQDHLPRVVVVGDQSAGKTSVLEMIAQARIFPRGSGEMMTRSPVKVTLSEGPHHVALFQDSSREFDLTKEEDLAALRHEIELRMRKNVKEGCTVSPETISLNVKGPGLQRMVLVDLPGVINTVTSGMAPDTKETIFSISKAYMQNPNAIILCIQDGSVDAERSIVTDLVSQMDPHGRRTIFVLTKVDLAEKNVASPSRIQQIIEGKLFPMKALGYFAVVTGKGNSSESIEAIREYEEEFFQNSKLLKTSMLKAHQVTTRNLSLAVSDCFWKMVRESVEQQADSFKATRFNLETEWKNNYPRLRELDRNELFEKAKNEILDEVISLSQVTPKHWEEILQQSLWERVSTHVIENIYLPAAQTMNSGTFNTTVDIKLKQWTDKQLPNKAVEVAWETLQEEFSRFMTEPKGKEHDDIFDKLKEAVKEESIKRHKWNDFAEDSLRVIQHNALEDRSISDKQQWDAAIYFMEEALQARLKDTENAIENMVGPDWKKRWLYWKNRTQEQCVHNETKNELEKMLKCNEEHPAYLASDEITTVRKNLESRGVEVDPSLIKDTWHQVYRRHFLKTALNHCNLCRRGFYYYQRHFVDSELECNDVVLFWRIQRMLAITANTLRQQLTNTEVRRLEKNVKEVLEDFAEDGEKKIKLLTGKRVQLAEDLKKVREIQEKLDAFIEALHQEK | 2
s-OPA1 K772R (domain or fragment, human, UniProt O60313-1 195-960, looked up, 10 endogenous acetylated lysine residues, including K328 and K342 (listed in Figure 2c), Optic Atrophy 1 (OPA1), human, short form (s-OPA1), residues 195-960; domain model of isoform 1; Gene bought from Genscript in the pGS-21a vector; source: E. coli BL21 (DE3), purified (glutathione resin, 3C protease cleavage, size exclusion chromatography)) ATDRGSESDKHFRKVSDKEKIDQLQEELLHTQLKYQRILERLEKENKELRKLVLQKDDKGIHHRKLKKSLIDMYSEVLDVLSDYDASYNTQDHLPRVVVVGDQSAGKTSVLEMIAQARIFPRGSGEMMTRSPVKVTLSEGPHHVALFKDSSREFDLTKEEDLAALRHEIELRMRKNVKEGCTVSPETISLNVKGPGLQRMVLVDLPGVINTVTSGMAPDTKETIFSISKAYMQNPNAIILCIQDGSVDAERSIVTDLVSQMDPHGRRTIFVLTKVDLAEKNVASPSRIQQIIEGKLFPMKALGYFAVVTGKGNSSESIEAIREYEEEFFQNSKLLKTSMLKAHQVTTRNLSLAVSDCFWKMVRESVEQQADSFKATRFNLETEWKNNYPRLRELDRNELFEKAKNEILDEVISLSQVTPKHWEEILQQSLWERVSTHVIENIYLPAAQTMNSGTFNTTVDIKLKQWTDKQLPNKAVEVAWETLQEEFSRFMTEPKGKEHDDIFDKLKEAVKEESIKRHKWNDFAEDSLRVIQHNALEDRSISDKQQWDAAIYFMEEALQARLKDTENAIENMVGPDWRKRWLYWKNRTQEQCVHNETKNELEKMLKCNEEHPAYLASDEITTVRKNLESRGVEVDPSLIKDTWHQVYRRHFLKTALNHCNLCRRGFYYYQRHFVDSELECNDVVLFWRIQRMLAITANTLRQQLTNTEVRRLEKNVKEVLEDFAEDGEKKIKLLTGKRVQLAEDLKKVREIQEKLDAFIEALHQEK | 2

— PMC12120360, “Lysine acetylation modulates s‐OPA1 GTPase activity and oligomerization in mitochondrial membrane remodeling” (Protein Science : A Publication of the Protein Society, 2025)
